Measurements reported in US20140328753A1 (UNIVERSITE BORDEAUX SEGALEN, published 2014).

Assays:
biotinylated BSA = target: T1, biotinylated BSA (bovine, UniProt P02769 25-607, biotinylated); assay: direct TR-FRET, scFv coated
T1 construct: Control protein in the direct TR-FRET assay, at 50 ug/mL; also called biotinylated control protein; bovine serum albumin
Procedure: FIG. 4. Direct TR-FRET binding assays between scFvs and atheromatous tissue extracts. Direct TR-FRET principle is schematized at the top. The donor fluorophore europium cryptate (Eu)K conjugated to anti-c-myc mAb was able to recognize c-myc tag expressed by scFvs. The acceptor fluorophore XL665 conjugated to streptavidin bound biotinylated protein extract. When scFvs and target proteins bound, a FRET signal was recorded. […] Specific TR-FRET signal was measured as a percentage DeltaF (percent DeltaF). The time course of the detection of the complex formation was performed after 6 hours (▪), 16 hours ( ), 24 hours ( ) and 40 hours (□) of incubation at 4° C. Ten microliter of scFv were coated on the plate at concentrations between 3 and 10 μg/mL according to the clone. The signals were measured in the presence of 4 nmol/L of mAb-(Eu)K, 4 nmol/L of streptavidin-XL665, and 30 μg/mL of biotinylated atheromatous protein extract or 50 μg/mL of biotinylated BSA (data not shown). Histobar values represent the average of at least three independent experiments±SD performed from the same purified scFv production.
Binding assays between scFvs and atheromatous protein extracts were assessed by direct TR-FRET. Black Fluotrac 600 microplate (Greiner) was coated with 10 μL of scFv (final concentration comprised between 3 and 10 μg/mL according to the clone) in 0.1 mol/L NaHCO₃, pH 8.6 for 16 hours at 4° C. Subsequently, plates were blocked for 3 hours at 4° C. using 1% BSA (w/v) in PBS solution. Following washing in PBS, 30 μg/mL of biotinylated atheromatous protein extract in 1% BSA/PBS was incubated for 16 hours at 4° C. After washing in PBS, 50 μL of reaction buffer (100 mmol/L Phosphate buffer, pH 7; 400 mmol/L KF buffer; 0.1% BSA), 4 nmol/L of anti c-myc-(Eu)K (Cisbio Bioassays, Codolet, France) and 4 nmol/L of streptavidin-XL665 (Cisbio Bioassays) were incubated in a final volume of 100 μL. FRET signal emission was measured and monitored with an Infinite® F500 reader (Tecan, Lyon, France) on a 40-hour time course. The percent DeltaF values reported the intensity of the direct binding between scFvs and protein extract.

[1] = target: human recombinant carbonic anhydrase II (human, UniProt P00918 1-260); assay: ELISA, CA-II coated at 10 µg/mL, scFv at 10 µg/mL
Procedure: Ninety-six well ELISA microtiter plates (Greiner) were coated overnight, at 4° C., with 100 µL of human recombinant carbonic anhydrase II (Sigma-Aldrich, St louis, USA) at a final concentration of 10 μg/mL, or bovine serum albumin at 50 μg/mL in carbonate buffer (NaHCO3/Na2CO3, 50 mmol/L, pH 9.6). All further reactions were carried out at room temperature. Following three washing steps with PBS-Tween 20 (0.5% Tween 20), 100 μL of purified K3.1 scFv at 10 μg/mL were added to each well. After a 2-h incubation and five washing steps, bound scFv was labeled with a mix of HRP-conjugated anti c-myc (diluted 1/1000, Miltenyi Biotech) and anti 6His (diluted 1/500, Roche Diagnostics) mAbs. After 1-h incubation and washing steps, color was developed with 100 μL of 3,3′,5,5′-Tetramethylbenzidine (TMB) liquid substrate system for ELISA (Sigma) and the absorbance was read at 450 nm with an Infinite® F500 reader (Tecan, Lyon, France).

[2] = target: T2, rabbit cytosolic carbonic anhydrase isoenzyme II (CA-II) (rabbit, UniProt P00919 2-260); assay: immunoprecipitation from rabbit atherosclerotic lysate on nickel beads, SDS-PAGE, LC-MS/MS
T2 construct: Pulled down from the lysate of rabbit atherosclerotic aorta; also called CA-II protein; protein with an apparent molecular mass of ~29 kDa
Procedure: Nickel-coated superparamagnetic beads (Ademtech, Pessac, France) were pre-washed three times with 500 μL of Binding Buffer (BB) (20 mmol/L Tris, pH 7; 500 mmol/L NaCl) and then incubated for 1 hour with 1 mg of rabbit atheromatous proteins solubilized in low stringent lysis buffer in order to get rid of nonspecific binding proteins. The supernatant free of nonspecific binding proteins was recovered and incubated with 10 μg of purified K3.1 scFv or of an irrelevant scFv for 16 hours at 4° C. under rotation. The next day, 20 μL of clean pre-washed superparamagnetic beads were added and incubated for a further 1 hour at 20° C. After three washings with 500 μL of BB, the immunoprecipitated complexes were eluted with 2×30 μL of elution buffer (20 mmol/L Tris-HCl, pH 7.5; 500 mmol/L NaCl; 100 mmol/L imidazole). The protein complexes were then separated using 10% SDS-PAGE under reducing conditions. The band was excised and submitted to trypsin digestion, followed by liquid chromatrography-tandem mass spectrometry analysis (LC-MS/MS).
To identify the molecule recognized by purified K3.1 scFv, immunoprecipitation experiments using nickel superparamagnetic beads were performed to retain 6H is-tagged scFvs complexed to antigens contained in the rabbit atherosclerotic protein lysate. […]

T1 sequence (P02769 25-607 limits assumed): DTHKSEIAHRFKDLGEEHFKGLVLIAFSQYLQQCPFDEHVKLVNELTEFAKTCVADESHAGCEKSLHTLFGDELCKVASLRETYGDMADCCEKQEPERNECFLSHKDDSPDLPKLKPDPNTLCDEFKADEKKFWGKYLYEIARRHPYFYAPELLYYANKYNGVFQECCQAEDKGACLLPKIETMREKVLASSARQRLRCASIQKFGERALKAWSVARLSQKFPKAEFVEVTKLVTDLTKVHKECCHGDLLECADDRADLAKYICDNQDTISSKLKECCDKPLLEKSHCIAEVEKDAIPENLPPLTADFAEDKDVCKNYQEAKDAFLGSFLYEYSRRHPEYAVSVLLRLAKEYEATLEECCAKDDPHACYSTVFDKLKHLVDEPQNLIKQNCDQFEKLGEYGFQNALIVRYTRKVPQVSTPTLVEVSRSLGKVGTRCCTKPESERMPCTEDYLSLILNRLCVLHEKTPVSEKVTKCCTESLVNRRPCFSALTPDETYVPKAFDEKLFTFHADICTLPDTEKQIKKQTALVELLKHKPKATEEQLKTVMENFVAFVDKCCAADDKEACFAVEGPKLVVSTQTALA

B1: K3.1 scFv antibody (scFv)
scFv: EVQLVESGGSLVKPGGSLRLSCAASGFTFSNYSMNWVRQAPGKGLEWISSISGSSRYIYYADFVKGRFTISRDNATNSLYLQMNSLRAEDTAVYYCVRGEGLYSGSYNLHYWGRGTLVTVSSGGGGSGGGGSGGGGSQSVLTQPASVSGSPGQSITISCAGTSSDVGGYNYVSWYQQHPGKAPKLMIYEDSKRPSGVSNRFSGSKSGNTASLTISGLQAEDEADYFCGTPNTHALWVFGGGTKLAV
notes: Human scFv from a semi-synthetic library (13R4 framework), made soluble in E. coli HB2151 and purified on nickel; It carried c-myc and 6His tags in the assays
binding result (biotinylated BSA): no binding (tested: 50 µg/mL of biotinylated BSA)
binding result [1]: binds
binding result [2]: binds

B2: C3.3 scFv antibody (scFv)
scFv: EVQLVESGGSLVKPGGSLRLSCAASGFTFSNYSMNWVRQAPGKGLEWISSISGSSRYIYYADFVKGRFTISRDNATNSLYLQMNSLRAEDTAVYYCVRGIDGGGGWNYFDHWGRGTLVTVSSGGGGSGGGGSGGGGSQSVLTQPASVSGSPGQSITISCAGTSSDVGGYNYVSWYQQHPGKAPKLMIYEDSKRPSGVSNRFSGSKSGNTASLTISGLQAEDEADYYCRQPSNSPPLNFGGGTKLAV
notes: Soluble scFv with c-myc and 6His tags
binding result (biotinylated BSA): no binding (tested: 50 µg/mL of biotinylated BSA)

B3: I8.1 scFv antibody (scFv)
scFv: EVQLVESGGSLVKPGGSLRLSCAASGFTFSNYSMNWVRQAPGKGLEWISSISGSSRYIYYADFVKGRFTISRDNATNSLYLQMNSLRAEDTAVYYCVRNSFYASWSKDYSMEIWGRGTLVTVSSGGGGSGGGGSGGGGSQSVLTQPASVSGSPGQSITISCAGTSSDVGGYNYVSWYQQHPGKAPKLMIYEDSKRPSGVSNRFSGSKSGNTASLTISGLQAEDEADYYCQSWASRINIFGGGTKLAV
notes: as for B2
binding result (biotinylated BSA): no binding (tested: 50 µg/mL of biotinylated BSA)

B4: H2.1 scFv antibody (scFv)
scFv: EVQLVESGGSLVKPGGSLRLSCAASGFTFSNYSMNWVRQAPGKGLEWISSISGSSRYIYYADFVKGRFTISRDNATNSLYLQMNSLRAEDTAVYYCVRGGVDSSGDNCFDLWGRGTLVTVSSGGGGSGGGGSGGGGSQSVLTQPASVSGSPGQSITISCAGTSSDVGGYNYVSWYQQHPGKAPKLMIYEDSKRPSGVSNRFSGSKSGNTASLTISGLQAEDEADYYCTSYGSGATLVFGGGTKLAV
notes: as for B2
binding result (biotinylated BSA): no binding (tested: 50 µg/mL of biotinylated BSA)
